Experimental data from article PMC5855949.
Read-outs that look alike come from different tables or passages of the source.

Key:
[1] = target: T1, lambda cI repressor, hexa-histidine-tagged (bacteriophage lambda, UniProt P03034 1-237); assay: filter binding
[2] = target: T1, lambda cI repressor, …; assay: filter binding; remark: listed apart in the source

T1 sequence (P03034 whole entry): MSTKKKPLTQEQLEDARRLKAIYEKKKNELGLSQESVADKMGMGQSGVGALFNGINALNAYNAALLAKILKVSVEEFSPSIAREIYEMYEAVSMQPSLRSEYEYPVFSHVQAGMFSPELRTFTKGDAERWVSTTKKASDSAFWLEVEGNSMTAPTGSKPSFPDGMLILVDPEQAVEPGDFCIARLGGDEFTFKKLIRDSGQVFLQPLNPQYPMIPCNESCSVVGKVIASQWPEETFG

B1: aptamer Tarap (Guu(0/-7)) (structured_RNA)
RNA: GGGAUCGACAGGGCUCCCGUUUGGCUCGGCGAAGAUCGCCUGUACUUUGGAAAGCCGAGUCGU
With B1 the Kd [1] was 518 ± 96 nM and the Kd [2] was 264 ± 24 nM.
